Reference: patent US20260124314A1, “ANTl-5T4 ANTIGEN BINDING DOMAINS, ANTIBODY-DRUG CONJUGATES AND METHODS OF USE THEREOF” (Salubris Biotherapeutics, Inc., priority 2023, published 2026)
Positions count from the first letter of the chain named.

T1: 5T4 (Homo sapiens, UniProt Q13641)
T1 sequence (Q13641 32-420): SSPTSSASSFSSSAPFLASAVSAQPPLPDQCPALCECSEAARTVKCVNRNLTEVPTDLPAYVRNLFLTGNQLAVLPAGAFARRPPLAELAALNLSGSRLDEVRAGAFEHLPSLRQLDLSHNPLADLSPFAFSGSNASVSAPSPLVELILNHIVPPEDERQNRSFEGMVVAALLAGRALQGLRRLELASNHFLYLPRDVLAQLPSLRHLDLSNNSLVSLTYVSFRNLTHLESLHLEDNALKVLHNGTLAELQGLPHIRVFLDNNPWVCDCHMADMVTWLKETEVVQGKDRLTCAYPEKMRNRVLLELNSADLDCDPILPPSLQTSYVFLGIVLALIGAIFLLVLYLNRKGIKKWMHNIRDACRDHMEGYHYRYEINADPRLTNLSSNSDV

T2: recombinant human 5T4 protein (human, UniProt Q13641 32-355)
T2 construct: The ELISA protein was bought (Sino biologics and Biorbyt); also called recombinant 5T4 protein; trophoblast glycoprotein (TPBG)
T2 sequence: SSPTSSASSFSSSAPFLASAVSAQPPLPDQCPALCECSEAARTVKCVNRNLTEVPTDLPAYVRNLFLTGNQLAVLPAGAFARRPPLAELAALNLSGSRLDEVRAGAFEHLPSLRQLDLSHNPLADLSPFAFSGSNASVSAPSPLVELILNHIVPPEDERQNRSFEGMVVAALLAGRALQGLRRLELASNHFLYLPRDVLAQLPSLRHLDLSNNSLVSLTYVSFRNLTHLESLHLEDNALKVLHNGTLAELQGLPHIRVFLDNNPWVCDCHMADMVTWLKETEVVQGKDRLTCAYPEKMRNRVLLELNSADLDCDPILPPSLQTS

B1: mouse antibody No. 1 ((m)Ab1) (antibody, V domains shown)
VH: EVQLQQSGPDLVKPGASVKISCKASGYSFTDYYMHWVKQSHGKSLEWIGRVSPNNGATNTNQKFKDKAILTVDKSSSTAYMDLRSLTSEDSAVYYCARSTMITSYYFDYWGQGTTLTVSS
VL: SIVMTQTPKFLLVSAGDRITITCKASQSVSTDVAWYQQKPGQSPKLLIYFASDRYTGVPDRFTGSGNGTDFTFTITTVQAEDLAIYFCQQDYSSPPTFGGGTKLEIK
notes: Mouse IgG, captured by anti-mouse IgG antibodies; also called mouse Ab1; mouse monospecific antibody Ab1
B2: humanized antibody No. 1 ((h)Ab1) (antibody, V domains shown)
VH: QVQLVQSGAEVKKPGASVKVSCKASGYSFTDYYMHWVRQAPGQGLEWMGRVSPNNGATNTNQKFKDRVTMTRDTSISTAYMELRSLRSEDTAVYYCARSTMITSYYFDYWGQGTLVTVSS
VL: DIVMTQSPSFLSVSVGDRVTITCKASQSVSTDVAWYQQKPGQAPKLLIYFASDRYTGVPDRFSGSGSGTDFTFTISSLQAEDVAVYYCQQDYSSPPTFGGGTKLEIK
notes: The FcγR assay calls it 'without Fc mutations'; also called humanized Ab1; humanized monospecific antibody Ab1
B3: Bs3-HL biparatopic anti-5T4 antibody (Bs3 orientation, scFv in the VH-VL orientation) (bispecific antibody, human IgG1, kappa)
heavy: QVQLVQSGAEVKKPGASVKVSCKASGYSFTDYYMHWVRQAPGQGLEWMGRVSPNNGATNTNQKFKDRVTMTRDTSISTAYMELRSLRSEDTAVYYCARSTMITSYYFDYWGQGTLVTVSSASTKGPSVFPLAPSSKSTSGGTAALGCLVKDYFPEPVTVSWNSGALTSGVHTFPAVLQSSGLYSLSSVVTVPSSSLGTQTYICNVNHKPSNTKVDKRVEPKSCDKTHTCPPCPAPEFLGGPCVFLFPPKPKDTLMISRTPEVTCVVVDVSHEDPEVKFNWYVDGVEVHNAKTKPREEQYNSTYRVVSVLTVLHQDWLNGKEYKCKVSNKALPAPIEKTISKAKGQPREPQVYTLPPSREEMTKNQVSLTCLVKGFYPSDIAVEWESNGQPENNYKTTPPVLDSDGSFFLYSKLTVDKSRWQQGNVFSCSVMHEALHAHYTQKSLSLSPGKGGGGSGGGGSGGGGSEVQLLESGGGLVQPGGSLRLSCAASGFDFSRYWMTWVRQAPGKCLEWVSEINPDSRTINYTPSLKDRFTISRDNAKNTLYLQMNSLRAEDTAVYYCARPDHDYNPYYFNYWGQGTTVTVSSGGGGSGGGGSGGGGSGGGGSDIVLTQSPASLAVSLGQRATISCRPSQSVSTSSNSYIHWYQQKPGQPPKLLIKYASNLESGVPARFSGSGSGTDFTLTISPVEAEDTATYYCQQSWEIPLTFGCGTKLEIK
light: DIVMTQSPSFLSVSVGDRVTITCKASQSVSTDVAWYQQKPGQAPKLLIYFASDRYTGVPDRFSGSGSGTDFTFTISSLQAEDVAVYYCQQDYSSPPTFGGGTKLEIKRTVAAPSVFIFPPSDEQLKSGTASVVCLLNNFYPREAKVQWKVDNALQSGNSQESVTEQDSKDSTYSLSSTLTLSKADYEKHKVYACEVTHQGLSSPVTKSFNRGEC
notes: The heavy chain is Ab1 heavy chain (IgG1), linker, then Ab2 scFv (VH-linker-VL); Bs3-HL is described as the form without FCA, so its real Fc may have L, S and N at those positions; also called bispecific antibody in the Bs3-HL orientation; Bispecific 5T4-BS3 antibody
B4: Bs3-HL biparatopic anti-5T4 antibody conjugated to MMAE (Example 4) (bispecific antibody, human IgG1, kappa)
heavy: B3 heavy
light: B3 light
modifications: monomethyl auristatin E (MMAE) conjugated; attachment residues, chain and drug-to-antibody ratio not stated for this experiment
notes: Antibody-drug conjugate of Bs3-HL; also called bispecific antibody in the Bs3-HL orientation conjugated to MMAE; bispecific antibody with conjugated MMAE
B5: mouse antibody No. 2 ((m)Ab2) (antibody, V domains shown)
VH: EVKLLESGGGLVQPGGSLKLSCAASGFDFSRYWMTWVRQAPGKGLEWIGEINPDSRTINYTPSLKDKFIISRDNAKNTLYLHMSKVRSEDTALYYCARPDHDYNPYYFNYWGQGTTLTVSS
VL: DIVLTQSPASLAVSLGQRATISCRPSQSVSTSSNSYIHWYQQKPGQPPKLLIKYASNLESGVPARFSGSGSGTDFTLNIHPVEEEDTATYYCQQSWEIPLTFGAGTKLELK
notes: Mouse IgG; also called mouse Ab2; mouse monospecific antibody Ab2
B6: humanized antibody No. 2 ((h)Ab2) (antibody, V domains shown)
VH: EVQLLESGGGLVQPGGSLRLSCAASGFDFSRYWMTWVRQAPGKGLEWVSEINPDSRTINYTPSLKDRFTISRDNAKNTLYLQMNSLRAEDTAVYYCARPDHDYNPYYFNYWGQGTTVTVSS
VL: B5 VL with N78T, H80S, E84A, A104G, L110I
notes: also called humanized Ab2; humanized monospecific antibody Ab2

Experiments:
5T4 = target: T1, 5T4; assay: Non-overlapping epitope binding assay (SPR); conditions: mouse antibody captured, 5T4 injected, then humanized antibody
Experimental: To examine epitope binding of anti-5T4 bispecific antibody-drug conjugate parental monospecific antibodies, surface plasmon resonance (SPR) binding experiments were performed using Biacore™ 8K systems (Cytiva™). HBS-EP+ buffer (10 mM HEPES, 150 mM NaCl, 3 mM EDTA and 0.05% v/v Surfactant P20) was used as running buffer. Anti-mouse IgG antibodies from the mouse antibody capture kit (Cytiva) were coupled in active flow cells on a CM5 sensor chip using an amine coupling kit (Cytiva), whereas the reference cell was left blank. As the first step, mouse monospecific antibody Ab1 or Ab2 was injected over both cells on all experimental channels. Second, test article 5T4 or buffer was injected over both cells on the corresponding channel. Third, humanized monospecific antibody Ab1 or Ab2, or buffer, was injected over both cells on all experimental channels. After each binding cycle, the sensor chip was regenerated with 10 mM Glycine-HCl pH1.7. SPR signals (RU) were recorded in real-time and plotted against time to generate binding sensorgrams. Sensorgrams from multiple channels were overlaid using Biacore 8K Evaluation Software.
To confirm the non-overlapping epitope binding of the select monospecific antibody Nos. 1 and 2, a surface plasmon resonance (SPR) technology-based binding assay was performed. […]

[1] = target: T2, recombinant human 5T4 protein; assay: optimized SPR (Biacore 8K), antibody captured on Protein A chip, recombinant 5T4 as analyte 0.02 to 5 µg/mL, 1:1 model
Experimental: (§1) SPR kinetic experiments were performed on Biacore 8K systems (GE healthcare) with HBS-EP+ as running buffer. […] Capture level for each antibody was maintained between 50-100 RU. The final analyte binding level at the highest concentration was maintained below 50 RU. […] After each binding cycle, the sensor chip was regenerated with glycine solution (pH 1.5). The resulting sensorgrams were fitted with a one-to-one binding model to extract kinetic constants using Biacore 8K Evaluation Software.

[2] = target: T2, recombinant human 5T4 protein; assay: SPR (Biacore 8K, optimized assay): antibody captured on a protein A chip, recombinant 5T4 injected at 0.02-5 µg/mL, one-to-one binding model
Experimental: as §1

FcγRI (Abcam) = FcγRI (Abcam) (UniProt P12314); assay: SPR (Biacore 8K), antibody captured on Protein A chip, Fc receptor as analyte, 1:1 model
FcγRIIIa (158V) = FcγRIIIa (158V) (UniProt P08637); assay: as above
[3] = target: T2, recombinant human 5T4 protein; assay: SPR (Biacore 8K), antibody captured on Protein A chip, 5T4 as analyte 0.625-10 nM, 1:1 model
Experimental: (§2) The binding affinity of anti-5T4 bispecific antibody-drug conjugate monospecific and bispecific antibodies to 5T4 was measured by Biacore kinetic experiments using a Protein A sensor chip on Biacore 8K (Cytiva) with HBS-EP+ as running buffer. […] After each binding cycle, the sensor chip was regenerated with glycine solution, pH 1.5. Signals from reference surface and an ensemble of buffer blank injections were subtracted from binding signals to correct for nonspecific binding and injection artifacts. The corrected experimental signals were globally fitted to a 1:1 binding model to extract kinetic constants, including association rate constant (ka), dissociation rate constant (kd), and equilibrium dissociation constant (KD), using the Biacore 8K Evaluation Software.

[4] = target: T2, recombinant human 5T4 protein; assay: SPR (Biacore 8K): antibody captured on a protein A chip, 5T4 protein injected at 0.625-10 nM, 1:1 binding model
Experimental: as §2

[5] = target: T2, recombinant human 5T4 protein; assay: SPR (Biacore 8K): antibody captured on a protein A chip, 5T4 protein injected at 0.625-10 nM, 1:1 binding model; FIG. 4C on D00005 prints the same value as 7.42e-11
Experimental: as §2

FcγRI (Abcam), sequence (P12314 16-288 limits assumed): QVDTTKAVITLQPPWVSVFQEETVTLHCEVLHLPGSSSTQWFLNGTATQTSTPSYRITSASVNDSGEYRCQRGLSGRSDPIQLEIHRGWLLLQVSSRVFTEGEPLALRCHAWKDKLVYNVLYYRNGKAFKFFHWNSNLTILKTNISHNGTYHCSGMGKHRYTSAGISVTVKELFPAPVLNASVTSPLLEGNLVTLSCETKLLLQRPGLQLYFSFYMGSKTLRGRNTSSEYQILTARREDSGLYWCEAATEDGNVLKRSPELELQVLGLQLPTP
FcγRIIIa (158V), sequence (P08637 17-208 F176V): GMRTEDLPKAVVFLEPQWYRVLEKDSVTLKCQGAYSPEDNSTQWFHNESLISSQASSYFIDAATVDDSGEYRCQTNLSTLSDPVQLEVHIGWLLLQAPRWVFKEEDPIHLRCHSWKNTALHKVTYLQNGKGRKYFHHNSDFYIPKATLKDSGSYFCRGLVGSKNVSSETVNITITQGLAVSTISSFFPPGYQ

Row | Molecule | epitope binding on 5T4 (5T4) | Kd [1] [nM] | koff [2] [s⁻¹] | kon [2] [M⁻¹ s⁻¹] | Kd [3] [nM] | koff [4] [s⁻¹] | kon [4] [M⁻¹ s⁻¹] | Kd [2] [pM] | also measured
1 | B1 | non-overlapping epitopes | 1.43 | 0.000421 | 259000 | – | – | – | – | –
2 | B2 | – | – | – | – | 0.198 | 0.000248 | 1.25e+06 | – | Kd (FcγRI (Abcam)): 3.73 nM; Kd (FcγRIIIa (158V)): 50.5 nM
3 | B3 | – | – | – | – | 0.742 | – | – | 3.63 | Kd [5]: 0.0742 nM
4 | B4 | – | – | 5.99e-06 | 376000 | – | – | – | 15.9 | –
5 | B5 | non-overlapping epitopes | 1.34 | 0.000273 | 203000 | – | – | – | – | –
6 | B6 | – | – | – | – | 0.32 | 0.000283 | 884000 | – | –
